Experimental data: patent US20240279356A1 (Xencor, published 2024)
Changes are numbered by the printed parent chain. Names and notes keep the numbering of the source. One block for each binder: values may come before it.

How the values were obtained:
human MSLN antigen [1] = target: T1, human MSLN antigen (human, UniProt Q13421 296-580, limits assumed); assay: Octet BLI; bsAb on anti-human Fc sensor, human MSLN as analyte, one concentration
T1 construct: Soluble antigen for BLI; also called Mesothelin; MESO
From the text: (§1) Variants of MESO-C were engineered by introducing point substitutions into the variable heavy region (VH) and the variable light region (VL) to generate 11 VH variants and 16 VL variants (sequences for which are depicted in FIG. 18 as H1.1-H1.13 and in FIG. 19 as L1.1-L1.18). An additional 4 VL variants were generated by combining useful point substitutions (sequences for which are depicted in FIG. 19 as L1.19-L1.22). WT and variant variable heavy regions were paired with WT and variant variable light regions to generate variant variable regions (Fvs) which were produced in the context of anti-MSLN×anti-CD3 bispecific antibodies. The bispecific antibodies were screened for MSLN binding affinity using Octet®, a BioLayer Interferometry (BLI)-based method. Experimental steps for Octet® generally include the following: Immobilization (capture of ligand to a biosensor); Association (dipping of ligand-coated biosensors into wells containing the analyte); and Dissociation (returning of biosensors to well containing buffer). In an initial screening, anti-human Fc sensors were used to capture the bispecific mAbs and dipped into human MSLN antigen (one concentration to screen large library). The resulting dissociation constant of illustrative variants (KD), association rate (kₐ), dissociation rate (kd), as well as sensorgram response are depicted in FIG. 20. In further screening of favorite variants identified in the initial screen (and combination variants), bispecific mAbs were dipped into multiple concentrations of human MSLN antigen, data for which are depicted in FIG. 21 (from various screens).

cyno MSLN = target: T2, cyno MSLN (Macaca fascicularis (cynomolgus)); assay: Octet BLI; bsAb on anti-human Fc sensor, cyno MSLN as analyte, one concentration
T2 construct: soluble antigen for Octet; also called cynomolgus MSLN

human MSLN antigen [2] = target: T1, human MSLN antigen; assay: Octet BLI; bsAb on anti-human Fc sensor, human MSLN as analyte, several concentrations
From the text: as §1

T1 sequence (Q13421 other isoform, or with tags, fused parts or gaps limits assumed): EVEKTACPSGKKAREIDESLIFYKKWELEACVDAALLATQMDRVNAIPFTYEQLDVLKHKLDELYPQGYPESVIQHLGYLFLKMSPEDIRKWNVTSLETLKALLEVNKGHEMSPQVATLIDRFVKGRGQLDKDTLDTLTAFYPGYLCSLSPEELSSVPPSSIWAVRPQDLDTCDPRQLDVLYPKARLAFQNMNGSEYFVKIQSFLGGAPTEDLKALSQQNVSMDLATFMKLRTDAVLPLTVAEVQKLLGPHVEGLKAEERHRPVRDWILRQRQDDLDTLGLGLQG

B3: XENP32555 (bispecific antibody)
Fab-Fc heavy chain (anti-MSLN VH): QVQLVQSGAEVKKPGASVKVSCKASGYTFTSYWMHWVRQAPGQGLEWMGMIHPNSGNTIYYEKFQGRVTMTVDKSISTAYMELSRLRSDDTAVYYCAIIITPVVPKFDYWGQGTLVTVSSASTKGPSVFPLAPSSKSTSGGTAALGCLVKDYFPEPVTVSWNSGALTSGVHTFPAVLQSSGLYSLSSVVTVPSSSLGTQTYICNVNHKPSDTKVDKKVEPKSCDKTHTCPPCPAPPVAGPSVFLFPPKPKDTLMISRTPEVTCVVVDVKHEDPEVKFNWYVDGVEVHNAKTKPREEEYNSTYRVVSVLTVLHQDWLNGKEYKCKVSNKALPAPIEKTISKAKGQPREPQVYTLPPSREEMTKNQVSLTCDVSGFYPSDIAVEWESDGQPENNYKTTPPVLDSDGSFFLYSKLTVDKSRWEQGDVFSCSVMHEALHNHYTQKSLSLSPGK
scFv-Fc heavy chain (anti-CD3 H1.30_L1.47): not shown
light chain (anti-MSLN VL): DIVMTQSPDSLAVSLGERATINCKASHDVGTSVAWYQQKPGQSPKLLIYWASTRHTGVPDRFTGSGSGTDFTLTISSLQAEDVAVYFCQQYSSYPLTFGAGTKLEIKRTVAAPSVFIFPPSDEQLKSGTASVVCLLNNFYPREAKVQWKVDNALQSGNSQESVTEQDSKDSTYSLSSTLTLSKADYEKHKVYACEVTHQGLSSPVTKSFNRGEC
notes: 1+1 Fab-scFv-Fc bsAb; VH D55G, VL WT (Kabat); also called MESO-C H1.6_L1
Kd (human MSLN antigen [1]): 684 pM
Response (human MSLN antigen [1]): 1.23
koff (human MSLN antigen [1]): 0.000375 s⁻¹
kon (human MSLN antigen [1]): 549000 M⁻¹ s⁻¹
Kd (cyno MSLN): 603 pM
Response (cyno MSLN): 1.11
koff (cyno MSLN): 0.000342 s⁻¹
kon (cyno MSLN): 566000 M⁻¹ s⁻¹

B4: XENP32565 (bispecific antibody)
Fab-Fc heavy chain (anti-MSLN VH): B3 Fab-Fc heavy chain (anti-MSLN VH) with G56D
scFv-Fc heavy chain (anti-CD3 H1.30_L1.47): not shown
light chain (anti-MSLN VL): B3 light chain (anti-MSLN VL) with H55E
notes: 1+1 Fab-scFv-Fc bsAb; VH WT, VL H55E (Kabat); also called MESO-C H1_L1.7
Kd (human MSLN antigen [1]): 286 pM
Response (human MSLN antigen [1]): 1.11
koff (human MSLN antigen [1]): 0.000169 s⁻¹
kon (human MSLN antigen [1]): 590000 M⁻¹ s⁻¹
Kd (cyno MSLN): 255 pM
Response (cyno MSLN): 1
koff (cyno MSLN): 0.000151 s⁻¹
kon (cyno MSLN): 592000 M⁻¹ s⁻¹

B5: XENP32557 (bispecific antibody)
Fab-Fc heavy chain (anti-MSLN VH): B3 Fab-Fc heavy chain (anti-MSLN VH) with G56D, T101S
scFv-Fc heavy chain (anti-CD3 H1.30_L1.47): not shown
light chain (anti-MSLN VL): B3 light chain (anti-MSLN VL)
notes: 1+1 Fab-scFv-Fc bsAb; VH T97S, VL WT (Kabat); also called MESO-C H1.8_L1
Kd (human MSLN antigen [1]): 721 pM
Response (human MSLN antigen [1]): 1.15
koff (human MSLN antigen [1]): 0.000374 s⁻¹
kon (human MSLN antigen [1]): 519000 M⁻¹ s⁻¹
Kd (cyno MSLN): 620 pM
Response (cyno MSLN): 1.09
koff (cyno MSLN): 0.000321 s⁻¹
kon (cyno MSLN): 518000 M⁻¹ s⁻¹

B6: XENP32559 (bispecific antibody)
Fab-Fc heavy chain (anti-MSLN VH): B3 Fab-Fc heavy chain (anti-MSLN VH) with G56D
scFv-Fc heavy chain (anti-CD3 H1.30_L1.47): not shown
light chain (anti-MSLN VL): B3 light chain (anti-MSLN VL) with A25S
notes: 1+1 Fab-scFv-Fc bsAb; VH WT, VL A25S (Kabat); also called MESO-C H1_L1.1
Kd (human MSLN antigen [1]): 283 pM
Response (human MSLN antigen [1]): 1.11
koff (human MSLN antigen [1]): 0.000161 s⁻¹
kon (human MSLN antigen [1]): 569000 M⁻¹ s⁻¹
Kd (cyno MSLN): 223 pM
Response (cyno MSLN): 1.04
koff (cyno MSLN): 0.000128 s⁻¹
kon (cyno MSLN): 575000 M⁻¹ s⁻¹

B7: XENP32564 (bispecific antibody)
Fab-Fc heavy chain (anti-MSLN VH): B3 Fab-Fc heavy chain (anti-MSLN VH) with G56D
scFv-Fc heavy chain (anti-CD3 H1.30_L1.47): not shown
light chain (anti-MSLN VL): B3 light chain (anti-MSLN VL) with V33L
notes: 1+1 Fab-scFv-Fc bsAb; VH WT, VL V33L (Kabat); also called MESO-C H1_L1.6
Kd (human MSLN antigen [1]): 86.1 pM
Response (human MSLN antigen [1]): 0.952
koff (human MSLN antigen [1]): 5.68e-05 s⁻¹
kon (human MSLN antigen [1]): 660000 M⁻¹ s⁻¹
Kd (cyno MSLN): 29.7 pM
Response (cyno MSLN): 0.849
koff (cyno MSLN): 2.01e-05 s⁻¹
kon (cyno MSLN): 676000 M⁻¹ s⁻¹

B10: XENP32551 (bispecific antibody)
Fab-Fc heavy chain (anti-MSLN VH): B3 Fab-Fc heavy chain (anti-MSLN VH) with W33Y, G56D
scFv-Fc heavy chain (anti-CD3 H1.30_L1.47): not shown
light chain (anti-MSLN VL): B3 light chain (anti-MSLN VL)
notes: 1+1 Fab-scFv-Fc bsAb; VH W32Y, VL WT (Kabat); also called MESO-C H1.2_L1
Kd (human MSLN antigen [1]): 1600 pM
Response (human MSLN antigen [1]): 1.19
koff (human MSLN antigen [1]): 0.000773 s⁻¹
kon (human MSLN antigen [1]): 483000 M⁻¹ s⁻¹
Kd (cyno MSLN): 1660 pM
Response (cyno MSLN): 1.1
koff (cyno MSLN): 0.000822 s⁻¹
kon (cyno MSLN): 495000 M⁻¹ s⁻¹

B11: XENP32560 (bispecific antibody)
Fab-Fc heavy chain (anti-MSLN VH): B3 Fab-Fc heavy chain (anti-MSLN VH) with G56D
scFv-Fc heavy chain (anti-CD3 H1.30_L1.47): not shown
light chain (anti-MSLN VL): B3 light chain (anti-MSLN VL) with H27Q
notes: 1+1 Fab-scFv-Fc bsAb; VH WT, VL H27Q (Kabat); also called MESO-C H1_L1.2
Kd (human MSLN antigen [1]): 633 pM
Response (human MSLN antigen [1]): 1.03
koff (human MSLN antigen [1]): 0.000383 s⁻¹
kon (human MSLN antigen [1]): 605000 M⁻¹ s⁻¹
Kd (cyno MSLN): 1200 pM
Response (cyno MSLN): 0.948
koff (cyno MSLN): 0.000762 s⁻¹
kon (cyno MSLN): 634000 M⁻¹ s⁻¹

Now from value to binder:

Kd (human MSLN antigen [1]): 103 pM
Response (human MSLN antigen [1]): 0.981
koff (human MSLN antigen [1]): 7.35e-05 s⁻¹
kon (human MSLN antigen [1]): 717000 M⁻¹ s⁻¹
Kd (cyno MSLN): 155 pM
Response (cyno MSLN): 0.95
koff (cyno MSLN): 0.000105 s⁻¹
kon (cyno MSLN): 676000 M⁻¹ s⁻¹
B1: XENP32570 (bispecific antibody)
heavy: B3 Fab-Fc heavy chain (anti-MSLN VH)
scFv-Fc: not shown
light: B3 light chain (anti-MSLN VL) with D28S
notes: VH D55G, VL D28S (Kabat); also called MESO-C H1.6_L1.3; copies: 1 + 1 + 1

Kd (human MSLN antigen [2]): 90400 pM
Response (human MSLN antigen [2]): 0.202
koff (human MSLN antigen [2]): 0.0383 s⁻¹
kon (human MSLN antigen [2]): 424000 M⁻¹ s⁻¹
B2: XENP32939 (bispecific antibody)
heavy: B3 Fab-Fc heavy chain (anti-MSLN VH) with M50W, G56D
scFv-Fc: not shown
light: B3 light chain (anti-MSLN VL) with T31Q
notes: VH M50W, VL T37Q as printed; also called MESO-C H1.3_L1.13; copies: 1 + 1 + 1

Kd (human MSLN antigen [1]): 135 pM
Response (human MSLN antigen [1]): 0.978
koff (human MSLN antigen [1]): 9.35e-05 s⁻¹
kon (human MSLN antigen [1]): 693000 M⁻¹ s⁻¹
Kd (cyno MSLN): 189 pM
Response (cyno MSLN): 0.867
koff (cyno MSLN): 0.000125 s⁻¹
kon (cyno MSLN): 660000 M⁻¹ s⁻¹
B8: XENP32569 (bispecific antibody)
heavy: B3 Fab-Fc heavy chain (anti-MSLN VH) with N54Q, G56D
scFv-Fc: not shown
light: B3 light chain (anti-MSLN VL) with D28S
notes: VH N53Q, VL D28S (Kabat); also called MESO-C H1.5_L1.3; copies: 1 + 1 + 1

Response (human MSLN antigen [2]): 0.0022
binding result (human MSLN antigen [2]): no binding
B9: XENP32943 (bispecific antibody)
heavy: B3 Fab-Fc heavy chain (anti-MSLN VH) with M50W, G56D
scFv-Fc: not shown
light: B3 light chain (anti-MSLN VL) with Y94I
notes: VH M50W, VL Y94I as printed; also called MESO-C H1.3_L1.17; copies: 1 + 1 + 1
